Measurements from patent US9605266, “Cell-specific internalizing RNA aptamers against human CCR5 and uses therefore” (CITY OF HOPE).

Tests used:
[1] = molecular target: T1, C-C chemokine receptor type 5 (CCR5) (Homo sapiens, UniProt P51681 P51681:1-352); assay: cell_activity; HIV-1 R5 JR-FL p24 day 3; day 5 142.6 ± 41.3, day 7 79.3 ± 21.6; siRNA also contributes; details: tags: endogenous on primary PBMC-CD4+ cells; label: Cy3 on aptamer-sense strand, Cy5 on antisense strand; aptamer with UU linker and siRNA duplex, 2-nt 3' overhang
[2] = molecular target: T1, C-C chemokine receptor type 5 (CCR5); assay: cell_activity; HIV-1 R5 BaL p24 day 3; day 5 354.3 ± 113.3, day 7 >1000; details: tags: endogenous on primary PBMC-CD4+ cells
Experimental: (§1) PBMCs were freshly isolated from healthy donors and CD8 cells were depleted as described above. After culture for 3 days in the activated T-cell culture medium containing interleukin-2, the cell-surface CCR5 level of PBMCs was detected by flow cytometry as described previously. HIV-1 protection assay was performed in 24-well tissue culture plates. Duplicate night-point dilution series of experimental RNAs were prepared and refolded in refolding buffer. PBMCs were washed once with pre-warmed PBS, and 4×10^5 PBMCs were seeded to each well of assay plates. Subsequently, experimental RNAs with different concentrations were added. Plates were incubated for 4-6 hours at 37° C. in a humidified 5% CO_2 incubator. Various viruses (R5 strains: JR-FL, Bal, MOI=0.01; or X4 strains: IIIB, NL4-3, MOI=0.001) were added into each well. After 24 hours incubation, the cells were gently washed with pre-warmed PBS to eliminate free viruses and were incubated sequentially at 37° C. in a humidified 5% CO_2 incubator.
(§2) The $IC50$ value of G-3 aptamer was indicated here. G-3 aptamers with different concentrations were incubated with primary PBMCs. After 4-6 hours incubation, various viruses (R5 strains: JR-FL, Bal; or X4 strains: IIIB, NL4-3) were added into each well. The culture supernatants were collected at different time points after infection for HIV-1 p24 antigen ELISA assay. […]

[3] = molecular target: T1, C-C chemokine receptor type 5 (CCR5); assay: cell_activity; HIV-1 R5 JR-FL p24 day 3; day 5 232.6 ± 38.3, day 7 170.4 ± 47.0; X4 strains IIIB and NL4-3 not inhibited; details: tags: endogenous on primary PBMC-CD4+ cells
Experimental: as §1, §2

[4] = molecular target: T1, C-C chemokine receptor type 5 (CCR5); assay: cell_activity; HIV-1 R5 JR-FL p24 day 3; day 5 58.51 ± 11.22, day 7 17.09 ± 5.90; X4 NL4-3 not converged; details: tags: endogenous on in vivo generated human CD4+ T cells
[5] = molecular target: T1, C-C chemokine receptor type 5 (CCR5); assay: flow; apparent Kd, live cells, RT 30 min, DPBS with 1 mM Ca2+/1 mM Mg2+ and tRNA; R2 0.95; reduced by CCR5 siRNA knockdown; no binding to CCR5-negative U373-Magi; details: tags: U373-Magi-CCR5E cells
Experimental: Adherent cell lines (U373-Magi cells and U373-Magi-CCR5E cells) were washed with pre-warmed PBS and detached with Cell stripper. Suspension cell lines (CEM-NKr cells, CEM-NKr-CCR5 cells, and PBMCs) were washed twice with pre-warmed PBS. After counting the cells' number, the desired number of cells was resuspended in 100 µL binding buffer containing Cy3-labeled experimental RNA aptamers at different concentrations as shown. After incubation at room temperature for 30 min, cells were washed three times with 500 µL of pre-warmed binding buffer, and finally resuspended in 350 µL of DPBS for flow cytometry analysis (Flow cytometry core, City of Hope, CA). The dissociation constants were calculated using nonliner curve regression with a Graph Pad Prism 6.0.

[6] = molecular target: T1, C-C chemokine receptor type 5 (CCR5); assay: cell_activity; HIV-1 R5 BaL p24 day 3; day 5 245.5 ± 35.76, day 7 243.2 ± 46.16; details: tags: endogenous on in vivo generated human CD4+ T cells

T1 sequence (P51681 whole entry, one chain of several): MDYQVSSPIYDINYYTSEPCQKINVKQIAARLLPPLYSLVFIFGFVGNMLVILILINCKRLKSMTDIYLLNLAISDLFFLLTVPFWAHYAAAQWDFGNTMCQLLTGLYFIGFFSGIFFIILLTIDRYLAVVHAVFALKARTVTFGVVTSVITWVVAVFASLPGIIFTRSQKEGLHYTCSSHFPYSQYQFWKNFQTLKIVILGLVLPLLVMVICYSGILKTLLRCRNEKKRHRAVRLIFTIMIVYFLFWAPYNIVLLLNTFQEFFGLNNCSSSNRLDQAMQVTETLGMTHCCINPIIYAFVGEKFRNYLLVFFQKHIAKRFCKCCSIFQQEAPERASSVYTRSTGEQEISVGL

Binder | IC50 [1] | IC50 [2] | IC50 [3] | IC50 [4] | Kd [5] | IC50 [6]
G-3-TNPO3 27-mer OVH chimera (mixed, 2'-F pyrimidines in sense strand (transcribed)) RNA 1: GGGAGGACGAUGCGGGCCUUCGUUUGUUUCGUCCACAGACGACUCGCCCGAUUCAAAGCCGACAUUGCAGCUCGUGUACC RNA 2: UACACGAGCUGCAAUGUCGGCUUUG | 23.2 nM |  |  |  |  | 
G-3 aptamer (ssRNA, 2'-F pyrimidines (2'-F-C, 2'-F-U)) RNA: GGGAGGACGAUGCGGGCCUUCGUUUGUUUCGUCCACAGACGACUCGCCCGA |  | 349 nM | 220 nM | 48 nM | 111 nM | 148 nM
